Laboratory results: patent publication US20210238298A1 (ALLIGATOR BIOSCIENCE, published 2021)
Blank lines part the entries; values can stand above or below the binder they belong to.

Experiments:
[1] = target: T1, recombinant human CD137-Fc (R&D #838-4B) (human, UniProt Q07011 24-186); test: SPR (summary table)
T1 construct: Bought; also called Human CD137 (R&D systems); CD137 (R&D Systems); not shown: Fc part, not described

[2] = target: T2, CD40 (Ancell) (UniProt P25942 21-193); test: ELISA, coated CD40-Fc
T2 construct: also called CD40-Fc (Ancell #504-820); not shown: Fc part, not described
Experimental: (§1) ELISA plates (Greiner #655074) were coated with 50 μl/well of recombinant human OX40 (R&D #1493-CD), CD40-Fc (Ancell #504-820) or CD137 (R&D #838-4B) diluted to a final concentration of 0.5 μg/ml in PBS for 1 h at 37° C. or overnight at 4° C. Plates were washed with PBS+0.05% TWEEN20 (PBST), followed by block with PBST+1% bovine serum albumin (BSA). Antibody samples were prepared as serial 1/10 dilutions from 10-0.01 μg/ml in PBST+1% BSA and incubated for 1h in room temperature, followed by detection using a horse radish peroxidase-conjugated anti-human kappa light chain antibody (AbD Serotec #STAR127P) and developed using SuperSignal ELISA Pico Chemiluminescent substrate (Pierce ThermoScientific #37069).

[3] = target: CD137 on primary human CD8+ T cells (human, UniProt Q07011 24-255); test: cell-based or functional assay
[4] = target: T1, recombinant human CD137-Fc (R&D #838-4B); test: ELISA, coated CD137-Fc; mean
[5] = target: T3, CD137 chimera 1550 (1407): human CD137 with mouse domains 1, 2A and 2B (aa 24-86), on FreeStyle 293-F cells (human; mouse, UniProt P20334 24-85); test: flow cytometry, 293-F transfectants
T3 construct: domain: 1, 2A and 2B

[6] = target: T4, CD137 chimera 1551 (1408): human CD137 with mouse domains 2A, 2B and 3A (aa 47-96), on FreeStyle 293-F cells (human; mouse, UniProt P20334 46-95); test: flow cytometry, 293-F transfectants
T4 construct: domain: 2A, 2B and 3A

[7] = target: T5, CD137 chimera 1552 (1409): human CD137 with mouse domains 2B, 3A and 3B (aa 64-118), on FreeStyle 293-F cells (human; mouse, UniProt P20334 63-117); test: flow cytometry, 293-F transfectants
T5 construct: domain: 2B, 3A and 3B

[8] = target: T6, CD137 chimera 1553 (1410): human CD137 with mouse domains 3A, 3B and 4A (aa 87-133), on FreeStyle 293-F cells (human; mouse, UniProt P20334 86-133); test: flow cytometry, 293-F transfectants
T6 construct: domain: 3A, 3B and 4A

[9] = target: T7, CD137 chimera 1554 (1411): human CD137 with mouse domains 3B, 4A and 4B (aa 97-159), on FreeStyle 293-F cells (human; mouse, UniProt P20334 96-159); test: flow cytometry, 293-F transfectants
T7 construct: domain: 3B, 4A and 4B

[10] = target: T8, CD137 chimera 1555 (1412): human CD137 with mouse domains 1 and 4B and region of unknown function (aa 24-46 … (human; mouse, UniProt P20334 24-45; P20334 139-185); test: flow cytometry, 293-F transfectants
T8 construct: domain: 1;domain: 4B and region of unknown function

[11] = target: construct 1030: full length human CD137, on FreeStyle 293-F cells (human, UniProt Q07011 24-255); test: flow cytometry, 293-F transfectants
[12] = target: T9, Human OX40 (R&D systems, #3358_OX) (human, UniProt P43489 29-216); test: ELISA, coated recombinant human OX40
T9 construct: Bought; Several catalogue numbers are given for it; also called human OX40 (R&D Systems, 3388-OX); OX40-Fc (R&D systems, #3358_OX); not shown: Fc part
T9 sequence: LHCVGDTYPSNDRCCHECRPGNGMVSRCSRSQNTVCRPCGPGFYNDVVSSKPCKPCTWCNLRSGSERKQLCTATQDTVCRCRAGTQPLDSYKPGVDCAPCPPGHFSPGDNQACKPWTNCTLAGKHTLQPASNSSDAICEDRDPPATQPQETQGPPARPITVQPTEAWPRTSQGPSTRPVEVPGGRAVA
Experimental: as §1

[13] = target: T1, recombinant human CD137-Fc (R&D #838-4B); test: SPR (summary table); column headed ka (1/s)
[14] = target: T10, extracellular part of cynomolgus CD137 fused to the transmembrane and intracellular part of hCD40, on CHO … (cynomolgus (Macaca fascicularis); human, UniProt A9YYE7 24-186; P25942 194-277); test: flow cytometry, CHO cells; against human CD137
T10 construct: extracellular domain;domain: transmembrane and intracellular part; also called CHO-cyCD137; cyno CD137
Experimental: (§2) Binding and EC50 to human and cynomolgus (Macaca fascicularis) CD137 was determined using flow cytometry of CHO cells transfected with human CD137, cynomolgus CD137 or empty vector. The extracellular part of human or cynomolgus CD137 was fused to the transmembrane and intracellular part of human CD40 and cloned into pcDNA3.0. The vector was subsequently stably transfected into CHO cells. […] CD137-transfected and empty vector-transfected cells were incubated with CD137 antibodies for at least 1h at 4° C. to saturate the binding. In order to minimize antibody internalization, 0.05% sodium azide was used in the incubation buffer and all work was performed on ice. […] Directly after staining the cells were fixed with a paraformaldehyde solution (10× concentrate BD CellFIX, BD biosciences #340181). Cells were analyzed by flow cytometry using FACSVerse (BD Biosciences). The median fluorescence intensity (MFI) for each sample was determined and the dose response data was analysed using Graph Pad Prism.
(§3) MFI data was normalized for each antibody, where 0% is defined as the lowest value and 100% is the highest value in the dose titration for each antibody.

[15] = target: T11, extracellular part of human CD137 fused to the transmembrane and intracellular part of hCD40, on CHO cells (human, UniProt P25942 194-277, limits assumed); test: flow cytometry, CHO transfectants (summary table)
T11 construct: domain: transmembrane and intracellular part; also called CHO-huCD137; human CD137 over-expressed on CHO cells

[16] = target: T11, extracellular part of human CD137 fused …; test: flow cytometry, CHO cells; 95% confidence interval
Experimental: as §2, §3

[17] = target: T10, extracellular part of cynomolgus CD137 …; test: flow cytometry, CHO cells; 95% confidence interval
Experimental: as §2, §3

[18] = target: T1, recombinant human CD137-Fc (R&D #838-4B); test: SPR (Biacore), immobilised human CD137, bivalent antibody in flow
Experimental: Human CD137 (R&D systems) was immobilized to the Biacore™ sensorchip, CM5, using conventional amine coupling. The tested antibody and control (serially diluted ½ 10-0.63 nM) were analyzed for binding in HBS-P (GE, #BR-1003-68) at a flow rate of […]. The association was followed for 5 minutes and the dissociation for 15 minutes. Regeneration was performed twice using 10 mM Glycine pH 1.7 for 30 seconds. The kinetic parameters and the affinity constants were calculated using 1:1 Langmuir model.

[19] = target: T9, Human OX40 (R&D systems, #3358_OX); test: dual ELISA: OX40-Fc coated, bispecific antibody in dilutions, biotinylated CD137-Fc (1 ug/ml), HRP-streptavidin; the signal needs both bindings at once
[20] = target: T12, CTLA4-Fc (Fitzgerald, #30R-CD152) (human, UniProt P16410 38-152); test: SPR (Biacore), immobilised CTLA4-Fc
T12 construct: Bought; also called human CTLA-4 (Fitzgerald); biotinylated-CTLA4; not shown: Fc part of the bought fusion, not described
Experimental: Either CTLA4-Fc (Fitzgerald, #30R-CD152) or CD28-Fc (R&D Systems, 342-CD) was immobilized to the Biacore™ sensor chip, CM5, using conventional amine coupling. The CD86 mutant molecules and controls (serially diluted ½ 100-1.5 nM) were analyzed for binding in HBS-P (GE, BR-1003-68) at a flow rate of […]. The association was followed for 3 minutes and the dissociation for 10 minutes. Regeneration was performed twice using 5 mM NaOH for 30 seconds. The kinetic parameters and the affinity constants were calculated using BIAevaluation 4.1 software (Table 1.3).

[21] = target: T12, CTLA4-Fc (Fitzgerald, #30R-CD152); test: inhibition ELISA; the best IC50 of Table 1.2 is that of 1040
Experimental: The sample (CD86 mutant or wild type protein; serially diluted ¼ from 30000 to 0.3 ng/ml) was incubated with biotinylated-CTLA4 (Fitzgerald, #30R-CD152) in room temperature 1 h, the mixture was then added to the blocked wells in the ELISA plate. Detection was performed with Streptavidin-HRP (Pierce, #21126) and the plates were subsequently developed using SuperSignal Pico Chemiluminescent substrate (Thermo Scientific, #37069) and detected with Envision reader (Perkin Elmer). […] Kd binding ratio=[Kd for CD28]÷[Kd for CTLA-4].

[22] = target: T13, CTLA-4 (BMS, Orencia) (human, UniProt P16410 38-152); test: cell-based or functional assay
[23] = target: T13, CTLA-4 (BMS, Orencia); test: cell-based or functional assay; remark: listed apart in the source

Chain of CD137 on primary human CD8+ T cells (Q07011 24-255 limits assumed): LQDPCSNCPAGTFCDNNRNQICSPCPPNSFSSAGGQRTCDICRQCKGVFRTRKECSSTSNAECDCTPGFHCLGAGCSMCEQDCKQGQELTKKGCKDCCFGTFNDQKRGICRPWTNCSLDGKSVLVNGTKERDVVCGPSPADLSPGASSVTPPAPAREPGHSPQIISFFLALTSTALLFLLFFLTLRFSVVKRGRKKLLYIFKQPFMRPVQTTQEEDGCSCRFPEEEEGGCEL
T12 sequence (P16410 38-152 limits assumed): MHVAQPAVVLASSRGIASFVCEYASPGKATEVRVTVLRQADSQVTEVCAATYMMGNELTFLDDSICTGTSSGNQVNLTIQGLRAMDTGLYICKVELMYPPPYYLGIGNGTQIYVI
T1 sequence (Q07011 24-186 limits assumed): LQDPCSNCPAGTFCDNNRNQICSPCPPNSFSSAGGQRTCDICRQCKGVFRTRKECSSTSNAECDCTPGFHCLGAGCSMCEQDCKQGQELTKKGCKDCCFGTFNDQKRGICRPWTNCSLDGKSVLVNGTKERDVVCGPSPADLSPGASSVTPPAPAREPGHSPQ
T13 sequence (P16410 38-152 limits assumed): as the sequence (P16410 38-152 limits assumed) above
T11 sequence (P25942 other isoform, or with tags, fused parts or gaps limits assumed): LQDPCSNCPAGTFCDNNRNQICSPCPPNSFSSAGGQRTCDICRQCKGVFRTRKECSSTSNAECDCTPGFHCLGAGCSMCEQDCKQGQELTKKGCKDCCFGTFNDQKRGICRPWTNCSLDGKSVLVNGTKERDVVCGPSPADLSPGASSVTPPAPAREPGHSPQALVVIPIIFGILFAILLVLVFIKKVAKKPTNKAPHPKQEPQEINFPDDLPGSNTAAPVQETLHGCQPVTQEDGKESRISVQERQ
T10 sequence (P25942 other isoform, or with tags, fused parts or gaps): as the sequence (P25942 other isoform, or with tags, fused parts or gaps limits assumed) above, with P4L, N19S, R50K, T66I, P67S, F69Y, G75E, V149A counted along it
T4 sequence (P20334 other isoform, or with tags, fused parts or gaps mutant limits assumed): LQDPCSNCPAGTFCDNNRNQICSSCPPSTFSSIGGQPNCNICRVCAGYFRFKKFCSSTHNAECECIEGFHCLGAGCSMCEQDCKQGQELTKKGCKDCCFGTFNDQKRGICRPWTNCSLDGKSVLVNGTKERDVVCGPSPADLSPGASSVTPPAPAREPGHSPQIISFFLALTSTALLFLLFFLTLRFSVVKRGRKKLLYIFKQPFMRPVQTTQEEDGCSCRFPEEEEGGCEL
Chain of construct 1030: full length human CD137, on FreeStyle 293-F cells (Q07011 24-255 limits assumed): as the sequence (Q07011 24-255 limits assumed) above
T3 sequence (P20334 other isoform, or with tags, fused parts or gaps mutant limits assumed): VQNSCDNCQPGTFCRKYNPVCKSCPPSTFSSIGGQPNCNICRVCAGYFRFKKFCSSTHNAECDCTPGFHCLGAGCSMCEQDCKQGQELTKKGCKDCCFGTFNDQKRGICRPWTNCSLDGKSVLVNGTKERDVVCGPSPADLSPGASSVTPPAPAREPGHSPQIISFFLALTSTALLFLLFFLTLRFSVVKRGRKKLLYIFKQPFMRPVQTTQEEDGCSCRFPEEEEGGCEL
T2 sequence (P25942 21-193 limits assumed): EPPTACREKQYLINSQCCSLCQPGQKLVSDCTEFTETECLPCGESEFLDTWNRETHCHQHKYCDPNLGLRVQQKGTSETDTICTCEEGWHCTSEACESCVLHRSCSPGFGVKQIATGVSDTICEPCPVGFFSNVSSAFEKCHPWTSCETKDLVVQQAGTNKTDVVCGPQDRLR
T6 sequence (P20334 other isoform, or with tags, fused parts or gaps mutant limits assumed): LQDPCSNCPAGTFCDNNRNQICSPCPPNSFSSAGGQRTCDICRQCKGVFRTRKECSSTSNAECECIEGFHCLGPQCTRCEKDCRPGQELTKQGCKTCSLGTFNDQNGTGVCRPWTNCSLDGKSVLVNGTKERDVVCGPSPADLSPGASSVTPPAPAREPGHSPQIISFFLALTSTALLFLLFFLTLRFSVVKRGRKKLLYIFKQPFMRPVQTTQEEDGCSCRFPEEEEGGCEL
T5 sequence (P20334 other isoform, or with tags, fused parts or gaps mutant limits assumed): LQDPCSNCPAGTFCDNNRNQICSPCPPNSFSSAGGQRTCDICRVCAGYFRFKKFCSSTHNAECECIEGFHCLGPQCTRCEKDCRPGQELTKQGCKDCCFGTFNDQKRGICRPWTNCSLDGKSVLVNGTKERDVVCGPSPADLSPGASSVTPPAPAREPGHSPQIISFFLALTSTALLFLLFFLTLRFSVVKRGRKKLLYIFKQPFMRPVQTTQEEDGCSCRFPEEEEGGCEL
T8 sequence (P20334 other isoform, or with tags, fused parts or gaps mutant limits assumed): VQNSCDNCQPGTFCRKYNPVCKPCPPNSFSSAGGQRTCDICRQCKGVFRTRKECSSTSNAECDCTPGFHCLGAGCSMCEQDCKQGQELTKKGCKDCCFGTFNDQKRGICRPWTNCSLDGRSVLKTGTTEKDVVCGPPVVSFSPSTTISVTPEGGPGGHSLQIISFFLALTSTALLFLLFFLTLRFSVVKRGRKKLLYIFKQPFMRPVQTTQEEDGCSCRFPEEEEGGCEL
T7 sequence (P20334 other isoform, or with tags, fused parts or gaps mutant limits assumed): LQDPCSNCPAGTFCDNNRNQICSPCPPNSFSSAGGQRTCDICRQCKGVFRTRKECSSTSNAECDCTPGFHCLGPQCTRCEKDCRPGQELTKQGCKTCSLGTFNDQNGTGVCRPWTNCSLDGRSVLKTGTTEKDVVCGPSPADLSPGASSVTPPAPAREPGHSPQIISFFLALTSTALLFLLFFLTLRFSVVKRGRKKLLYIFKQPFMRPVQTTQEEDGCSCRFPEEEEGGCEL

Kd [1]: 0.1 nM | kon [1]: 1e+06 M⁻¹ s⁻¹ | binding result [2]: no binding (tested: 10 µg/ml) | Max IFN-γ [3]: 111000 pg/mL | Mean IFN-γ [3]: 33600 pg/mL | Min IFN-γ [3]: 7380 pg/mL | EC50 [4]: 0.35 nM | relative binding (MFI sample/isotype control, normalised to full-length human CD137) [5]: 0.11 | relative binding (MFI sample/isotype control, normalised to full-length human CD137) [6]: 0.67 | relative binding (MFI sample/isotype control, normalised to full-length human CD137) [7]: 1.2 | relative binding (MFI sample/isotype control, normalised to full-length human CD137) [8]: 1.24 | relative binding (MFI sample/isotype control, normalised to full-length human CD137) [9]: 1.01 | relative binding (MFI sample/isotype control, normalised to full-length human CD137) [10]: 0.12 | relative binding (MFI sample/isotype control, normalised to full-length human CD137) [11]: 1 | binding result [12]: no binding (tested: 10 µg/ml) | koff [13]: 0.0001 s⁻¹ | Ratio, cyno:human (EC50) [14]: 0.77 | EC50 [15]: 0.11 to 0.19 µg/mL | EC50 [16]: 0.11 to 0.19 µg/mL | EC50 [17]: 0.086 to 0.15 µg/mL | Kd [18]: 0.107 nM | koff [18]: 0.00011 s⁻¹ | kon [18]: 1.02e+06 M⁻¹ s⁻¹
B1: anti-CD137 antibody 1618/1619 (antibody, IgG1, V domains shown)
VH: EVQLLESGGGLVQPGGSLRLSCAASGFTFSYGSMYWVRQAPGKGLEWVSSISSGSGSTYYADSVKGRFTISRDNSKNTLYLQMNSLRAEDTAVYYCARSSYYGSYYSIDYWGQGTLVTVSS
VL: DIQMTQSPSSLSASVGDRVTITCRASQSISSYLNWYQQKPGKAPKLLIYAASSLQSGVPSRFSGSGSGTDFTLTISSLQPEDFATYYCQQYYDNLPTFGQGTKLEIK
notes: Produced as IgG; also called 1618-bio

binding result [19]: binds
B2: 1526/1527-1204/1205 (bispecific antibody, human IgG1, kappa)
heavy chain fused to scFv (VH1-Hc-linker-VH2/VL2): not shown
light chain (VL1-Lc): DIQMTQSPSSLSASVGDRVTITCRASQSISSYLNWYQQKPGKAPKLLIYAASSLQSGVPSRFSGSGSGTDFTLTISSLQPEDFATYYCQQYGSDSLLTFGQGTKLEIKRTVAAPSVFIFPPSDEQLKSGTASVVCLLNNFYPREAKVQWKVDNALQSGNSQESVTEQDSKDSTYSLSSTLTLSKADYEKHKVYACEVTHQGLSSPVTKSFNRGEC
notes: OX40 x CD137 bispecific antibody, scFv-IgG format

Kd [20]: 3 nM | koff [20]: 0.0032 s⁻¹ | kon [20]: 1e+06 M⁻¹ s⁻¹ | fold improvement of IC50 compared to wild type [21]: > 100 fold
B3: CD86 mutant 1040 (ligand)
chain: APLKIQAYFNETADLPCQFANSQNLSLSELVVFWQDQENLVLNEVYLGKERFDSVDSKYMGRTSFDSDSWTLRLHNLQIKDKGRYQCIIHHKKPTGMINIHQMNSELSVLA
notes: Variant of the CD86 extracellular domain

Fold change in IL-2 level induced by bispecific molecule compared to the corresponding combination of the monospecific molecules at 1.5 nM [22]: 4.7 fold | Mean IL-2 level (pg/ml) induced at 1.5 nM [23]: 2580 pg/mL
B4: bispecific molecule 1170/1263 (OX40 x CTLA-4) (bispecific antibody, human IgG1, kappa)
heavy: not shown
light: DIQMTQSPSSLSASVGDRVTITCRASQSISSYLNWYQQKPGKAPKLLIYAASSLQSGVPSRFSGSGSGTDFTLTISSLQPEDFATYYCQQGHGSYPHTFGQGTKLEIKRTVAAPSVFIFPPSDEQLKSGTASVVCLLNNFYPREAKVQWKVDNALQSGNSQESVTEQDSKDSTYSLSSTLTLSKADYEKHKVYACEVTHQGLSSPVTKSFNRGECSGGGGSGGGGSAPLKIQAYFNETADLPCQFANSQNLSLSELVVFWQDQENLVLNEVYLGKERFDSVDSKYMGRTSFDSDSWTLRLHNLQIKDKGRYQCIIHHKKPTGMINIHQMNSELSVLA
